{
  "source": "paper PMC8580823",
  "target": "Full-length human Nf1-23a (neurofibromin isoform 2) (human) (UniProt P21359)",
  "experiment": "cryo-EM structure; single-particle cryo-EM of purified Nf1-23a at ~0.5 mg/ml in 20 mM Tris pH 8.0, 300 mM NaCl, 2 mM DTT, grids frozen at 4 °C; native sample and sample incubated 90 min with 50 µM ZnCl2; homodimer, no symmetry imposed (C1)",
  "conditions": "remark: other sources report otherwise",
  "data": [
    {"substance": "Full-length human Nf1-23a (neurofibromin isoform 2), P21359 1-2839", "values": [
      {"measurement": "stoichiometry N", "result": 2}
    ]}
  ]
}
